Measurements from doi:10.1101/2021.03.16.435614.

Molecular target: CTD (C-terminal domain) of SOQ1 (SUPPRESSOR OF QUENCHING1), recombinant (Arabidopsis thaliana)
Assay: MST

Kd: 8.76 µM
Substance: Trx-like domain of SOQ1 (SUPPRESSOR OF QUENCHING1), recombinant (domain or fragment)
